From paper PMC5477506 come the findings set out here.

Test [1] has as its target CpTRIC, prokaryotic TRIC homologue from the bacterium Colwellia psychrerythraea (Colwellia psychrerythraea 34H). The experiment in a line: SEC-MALS; analytical size-exclusion chromatography in detergent-containing mobile phases; multi-angle light scattering with refractive index detection used to analyse the oligomeric state. On the technique in general: In gel filtration, larger molecules generally elute earlier.

For test [2] the target is unchanged. Description: cross-linking; purified protein in DDM (around 1 mg/ml in 30 ul) with glutaraldehyde (0, 0.00005%, 0.0001%, 0.0005%, 0.001%) at room temperature for 8 h; quenched with 50 mM Tris-Cl pH 8.0; 12% SDS-PAGE.
The target of test [3] is SaTRIC, prokaryotic TRIC homologue from the archaeon Sulfolobus acidocaldarius, wild type (Sulfolobus acidocaldarius). Description: SEC-MALS; analytical size-exclusion chromatography in detergent-containing mobile phases; multi-angle light scattering with refractive index detection used to analyse the oligomeric state.
Test [4] has the same target. The experiment in a line: cross-linking; purified protein in DDM (around 1 mg/ml in 30 ul) with glutaraldehyde (0, 0.00005%, 0.0001%, 0.0005%, 0.001%) at room temperature for 8 h; quenched with 50 mM Tris-Cl pH 8.0; 12% SDS-PAGE.
Test [5] has the same target. The experiment in a line: crystal structure; SaTRIC purified in DM, crystallised in lipid cubic phase (monoolein); lattices P6(3), P321 and R32, one molecule per asymmetric unit, trimer about the crystallographic three-fold axis.
The target in test [6] is Se-Met CpTRIC (Colwellia psychrerythraea 34H). Description: crystal structure; Se-Met CpTRIC in octylmaltoside, crystallised from detergent micelles (38% PEG400, 0.1 M NaCl, 0.1 M CdCl2, 0.1 M Tris-HCl pH 8.5); space group R32, one protomer per asymmetric unit.
In test [7] the target is Se-Met SaTRIC mutant (L148M) (Sulfolobus acidocaldarius). Description: crystal structure; SaTRIC purified in DM, crystallised in lipid cubic phase (monoolein); lattices P6(3), P321 and R32, one molecule per asymmetric unit, trimer about the crystallographic three-fold axis.

Usually stoichiometry N stands for a count of units in the complex or per binding partner. Consider “CpTRIC, prokaryotic TRIC homologue from the bacterium Colwellia psychrerythraea (natural protein)”, for which the stoichiometry N in test [1] and in test [2] was 3 throughout.
In the case of “SaTRIC, prokaryotic TRIC homologue from the archaeon Sulfolobus acidocaldarius, wild type (natural protein)”, the stoichiometry N in test [3], in test [4] and in test [5] was 3 each time.
In the case of Se-Met CpTRIC (natural protein), the stoichiometry N in test [6] came out at 3.
Consider “Se-Met SaTRIC mutant (L148M) (natural protein)”, for which, in test [7], the stoichiometry N is 3.
